Assay results taken from ChEMBL document CHEMBL1141065, “Inhibition of mandelate racemase by the substrate-intermediate-product analogue 1,1-diphenyl-1-hydroxymethylphosphonate” (Bioorg Med Chem Lett, 2005).

Experiments:
Settings in all cases: Pseudomonas putida
[1] = substrate: O=C([O-])[C@H]([O-])c1ccccc1.[Mg+2]
Description: Michaelis-Menten constant of mandelate racemase was determined at pH 6.3

[2] = substrate: O=C([O-])[C@H]([O-])c1ccccc1.[Mg+2]; remark: listed apart in the source
Description: Michaelis-Menten constant of mandelate racemase was determined at pH 7.5

[3] = substrate: O=C([O-])[C@H]([O-])c1ccccc1.[Mg+2]; remark: listed apart in the source
Description: Michaelis-Menten constant of mandelate racemase was determined at pH 8.7

B1: Mandelate racemase (Pseudomonas putida), P11444 (protein)
chain: MSEVLITGLRTRAVNVPLAYPVHTAVGTVGTAPLVLIDLATSAGVVGHSYLFAYTPVALKSLKQLLDDMAAMIVNEPLAPVSLEAMLAKRFCLAGYTGLIRMAAAGIDMAAWDALGKVHETPLVKLLGANARPVQAYDSHSLDGVKLATERAVTAAELGFRAVKTKIGYPALDQDLAVVRSIRQAVGDDFGIMVDYNQSLDVPAAIKRSQALQQEGVTWIEEPTLQHDYEGHQRIQSKLNVPVQMGENWLGPEEMFKALSIGACRLAMPDAMKIGGVTGWIRASALAQQFGIPMSSHLFQEISAHLLAATPTAHWLERLDLAGSVIEPTLTFEGGNAVIPDLPGVGIIWREKEIGKYLV
Protein B1 has a Km [1] of 950 µM, a Km [2] of 440 µM and a Km [3] of 2020 µM.
